Molecular target: the molecule itself
Assay: SDS-PAGE and Western blot; recombinant protein extracts (bacterial inclusion bodies in 1 M L-Arg pH 8.0, and soluble proteins purified by Ni2+-NTA) on 15% SDS-PAGE, immunoblotted with anti-His.IgG

B1: 10xHis-Xa_(SITE)-α-globin-HA (natural protein)
chain: not shown
notes: A factor Xa site (Xa_(SITE), from pET-16b) lies between the 10xHis tag and α-globin. ~18.7 kDa as printed; also called α-monomer; recombinant α-globin chain; source: E. coli CD43 (DE3), pET-16b; also as bacterial inclusion bodies dissolved in 1 M L-Arg; not shown: 10xHis, N-terminal, kept; HA, C-terminal, kept
binding result: binds

From publication PMC8290593, “PTD-mediated delivery of α-globin chain into Κ-562 erythroleukemia cells and α-thalassemic (HBH) patients’ RBCs ex vivo in the frame of Protein Replacement Therapy” (Journal of Biological Research, 2021)
